For 56 variants, self-cleavage results are on record in the RNAGym collection of RNA variant scans (doi:10.7554/elife.90254).

B1: LINE1-mini (parent)
chain: GGCAGAGCUCAACACAGCGUGGCAAAGUGGCUGUGGCUAGACUGCC

Variants of B1 are the subject of this data set. The experiment in a line: self-cleavage, relative activity (ratio to wild type); higher = more cleavage; in vitro, sequencing; the parent is a self-cleaving ribozyme.
For the variant GGCAGAGCUCAACACAUCGUGGCAAAGUCGCUGUGGCUAGACUGCC [G17U G29C], the self-cleavage was 0.39. The figure for GGCAGAGCUCAACACAUCGUGGCAAAGUAGCUGUGGCUAGACUGCC [G17U G29A] is 0.43. With GGCAGAGCUCAACACAUCGUGGAAAAGUGGCUGUGGCUAGACUGCC [G17U C23A], the self-cleavage is 0.21. GGCAGAGCUCAACACAUCGUGGUAAAGUGGCUGUGGCUAGACUGCC [G17U C23U]: the self-cleavage came to 0.18. The figure for GGCAGAGCUCAACACAUCGUGGGAAAGUGGCUGUGGCUAGACUGCC [G17U C23G] is 0.1; for GGCAGAGCUCAACACAUCUUGGCAAAGUGGCUGUGGCUAGACUGCC [G17U G19U] it is 0.14; for GGCAGAGCUCAACACAUCCUGGCAAAGUGGCUGUGGCUAGACUGCC [G17U G19C] it is 1.08. Consider GGCAGAGCUCAACACAUCAUGGCAAAGUGGCUGUGGCUAGACUGCC [G17U G19A], for which the self-cleavage was determined as 0.78.

As to GGCAGAGCUCAACACAUCGUGGCAAAGUGGCUGUGGCUAGACUGGC [G17U C45G], the self-cleavage was determined as 0.05. Take GGCAGAGCUCAACACAUCGUGGCAAAGUGGCUGUGGCUAGACUGAC [G17U C45A]: the self-cleavage came out at 0.05. Next, GGCAGAGCUCAACACAUCGUGGCAAAGUGGCUGUGGCUAGACUGUC [G17U C45U]: 0.18; GGCAGAGCUCAACACACCGUGGCAAAGUGGCCGUGGCUAGACUGCC [G17C U32C]: 0.14; GGCAGAGCUCAACACACCGUGGCAAAGUGGCAGUGGCUAGACUGCC [G17C U32A]: 0.07. Next, GGCAGAGCUCAACACACCGUGGCAAAGUGGCGGUGGCUAGACUGCC [G17C U32G]: 0.07; GGCAGAGCUCAACACACCGUGGCAAAGUGGCUGUGGCUAGACAGCC [G17C U43A]: 0.13; GGCAGAGCUCAACACACCGUGGCAAAGUGGCUGUGGCUAGACCGCC [G17C U43C]: 0.08. The figure for GGCAGAGCUCAACACAUCGUGACAAAGUGGCUGUGGCUAGACUGCC [G17U G22A] is 0.26; for GGCAGAGCUCAACACAUCGUGUCAAAGUGGCUGUGGCUAGACUGCC [G17U G22U] it is 0.67. With GGCAGAGCUCAACACAUCGUGCCAAAGUGGCUGUGGCUAGACUGCC [G17U G22C], the self-cleavage came to 0.61.

As for GGCAGAGCUCAACACACCGUGGCAAAGUCGCUGUGGCUAGACUGCC [G17C G29C], the self-cleavage came to 0.34.

On to GGCAGAGCUCAACACACCGUGGCAAAGUAGCUGUGGCUAGACUGCC [G17C G29A], for which the self-cleavage worked out at 0.12. The figure for GGCAGAGCUCAACACACCGUGGCAAAGUUGCUGUGGCUAGACUGCC [G17C G29U] is 0.32. Take GGCAGAGCUCAACACAUCGUGGCAAAGUGGGUGUGGCUAGACUGCC [G17U C31G]: the self-cleavage turned out to be 1.67. The figure for GGCAGAGCUCAACACAUCGUGGCAAAGUGGUUGUGGCUAGACUGCC [G17U C31U] is 0.11; for GGCAGAGCUCAACACAUCGUGGCAAAGUGGAUGUGGCUAGACUGCC [G17U C31A] it is 0.88; for GGCAGAGCUCAACACAUCGUGGCAAUGUGGCUGUGGCUAGACUGCC [G17U A26U] it is 0.04. Next, GGCAGAGCUCAACACAUCGUGGCAACGUGGCUGUGGCUAGACUGCC [G17U A26C]: 0.23; GGCAGAGCUCAACACAUCGUGGCAAGGUGGCUGUGGCUAGACUGCC [G17U A26G]: 0.1; GGCAGAGCUCAACACACCGUGGCAAAGUGCCUGUGGCUAGACUGCC [G17C G30C]: 0.25. Next, GGCAGAGCUCAACACACCGUGGCAAAGUGUCUGUGGCUAGACUGCC [G17C G30U]: 0.05; GGCAGAGCUCAACACACCGUGGCAAAGUGACUGUGGCUAGACUGCC [G17C G30A]: 0.94. Regarding GGCAGAGCUCAACACAUCGUGGCAAAGUGGCUCUGGCUAGACUGCC [G17U G33C], the self-cleavage stood at 0.02. GGCAGAGCUCAACACAUCGUGGCAAAGUGGCUUUGGCUAGACUGCC [G17U G33U]: the self-cleavage was 0.05. Turning to GGCAGAGCUCAACACAUCGUGGCAAAGUGGCUAUGGCUAGACUGCC [G17U G33A], the self-cleavage turned out to be 0.06. Next, GGCAGAGCUCAACACAUCGUGGCAAAGUGGCUGUGCCUAGACUGCC [G17U G36C]: 0.09; GGCAGAGCUCAACACAUCGUGGCAAAGUGGCUGUGUCUAGACUGCC [G17U G36U]: 0.05. Consider GGCAGAGCUCAACACAUCGUGGCAAAGUGGCUGUGACUAGACUGCC [G17U G36A], for which the self-cleavage is 0.09.

For the variant GGCAGAGCUCAACACACCGUGGCAAAGUGGCUGUCGCUAGACUGCC [G17C G35C], the self-cleavage is 0.04. For the variant GGCAGAGCUCAACACACCGUGGCAAAGUGGCUGUAGCUAGACUGCC [G17C G35A], the self-cleavage is 0.11.

For GGCAGAGCUCAACACACCGUGGCAAAGUGGCUGUUGCUAGACUGCC [G17C G35U], the self-cleavage was 0.03.

Take GGCAGAGCUCAACACAUCGUGGCAAAGAGGCUGUGGCUAGACUGCC [G17U U28A]: the self-cleavage turned out to be 0.17. Next, GGCAGAGCUCAACACAUCGUGGCAAAGUGGCUGUGGCUCGACUGCC [G17U A39C]: 0.04; GGCAGAGCUCAACACAUCGUGGCAAAGUGGCUGUGGCUGGACUGCC [G17U A39G]: 0.04; GGCAGAGCUCAACACAUCGUGGCAAAGUGGCUGUGGCUUGACUGCC [G17U A39U]: 0.2. The figure for GGCAGAGCUCAACACACCGUGGCAAAGUGGCUGUGGCAAGACUGCC [G17C U38A] is 0.14; for GGCAGAGCUCAACACACCGUGGCAAAGUGGCUGUGGCCAGACUGCC [G17C U38C] it is 0.15.

For the variant GGCAGAGCUCAACACACCGUGGCAAAGUGGCUGUGGCGAGACUGCC [G17C U38G], the self-cleavage was 0.03. Consider GGCAGAGCUCAACACACCGUGGCAAAGCGGCUGUGGCUAGACUGCC [G17C U28C], for which the self-cleavage was 0.36.

As for GGCAGAGCUCAACACACCGUGGCAAAGAGGCUGUGGCUAGACUGCC [G17C U28A], the self-cleavage was 1.16. Next, GGCAGAGCUCAACACACCGUGGCAAAGGGGCUGUGGCUAGACUGCC [G17C U28G]: 1.62; GGCAGAGCUCAACACAUCGAGGCAAAGUGGCUGUGGCUAGACUGCC [G17U U20A]: 0.16.

Regarding GGCAGAGCUCAACACAUCGGGGCAAAGUGGCUGUGGCUAGACUGCC [G17U U20G], the self-cleavage came to 0.12. Take GGCAGAGCUCAACACAUCGCGGCAAAGUGGCUGUGGCUAGACUGCC [G17U U20C]: the self-cleavage was determined as 0.64. The figure for GGCAGAGCUCAACACACCGUGGCAAAGUGGCUGUGGCUAAACUGCC [G17C G40A] is 0.04; for GGCAGAGCUCAACACACCGUGGCAAAGUGGCUGUGGCUACACUGCC [G17C G40C] it is 0.05; for GGCAGAGCUCAACACACCGUGGCAAAGUGGCUGUGGCUAUACUGCC [G17C G40U] it is 0.07.
